Source: US20120046217A1 (SUNGKYUNKWAN UNIVERSITY FOUNDATION FOR CORPORATE …, published 2012)

B1: truncated mutant consisting of an IGFBP5 C-terminal domain (other)
chain: QGPCRRHMEASLQELKASPRMVPRAVYLPNCDRKGFYKRKQCKPSRGRKRGICWCVDKYGMKLPGMEYVDGDFQCHTFDSSNVE
notes: not shown: Myc tag from vector pSecTaq2/Hygro A
B2: truncated mutant consisting of an IGFBP5 N-terminal domain (other)
chain: LGSFVHCEPCDEKALSMCPPSPLGCELVKEPGCGCCMTCALAEGQSCGVYTERCAQGLRCLPRQDEEKPLHALLHGRGVC
notes: as for B1

Target: T1, Flag-TNFR1 (UniProt P19438 30-455, limits assumed)
T1 construct: whole, on cells; The receptor sat on the membrane of transfected HEK293 cells; not shown: Flag tag
T1 sequence (looked up): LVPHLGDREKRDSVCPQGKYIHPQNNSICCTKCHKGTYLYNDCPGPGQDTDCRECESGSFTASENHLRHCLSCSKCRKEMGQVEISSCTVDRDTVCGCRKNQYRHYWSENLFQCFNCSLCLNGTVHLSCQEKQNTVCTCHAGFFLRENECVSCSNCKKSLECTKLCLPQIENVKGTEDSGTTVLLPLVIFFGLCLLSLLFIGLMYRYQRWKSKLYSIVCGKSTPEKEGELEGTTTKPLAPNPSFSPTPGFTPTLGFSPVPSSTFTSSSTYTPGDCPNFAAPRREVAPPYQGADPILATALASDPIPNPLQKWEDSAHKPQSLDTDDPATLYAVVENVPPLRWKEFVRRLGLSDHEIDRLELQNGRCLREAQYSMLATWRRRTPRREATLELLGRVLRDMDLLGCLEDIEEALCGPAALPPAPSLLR
Assay: co-immunoprecipitation of truncated mutants co-transfected with TNFR1
Description: The cells were washed with RIPA buffer, and protein-A/G-agarose beads (Santa Cruz) were added in an amount of 20 μL/tube to perform immunoprecipitation. According to the molecular weights of the truncated mutants, […] 15% SDS-PAGE gel electrophoresis was carried out, followed by Western blotting with an Myc antibody (FIG. 9).

Binder	binding result
B1	no binding
B2	no binding
